From paper PMC12697864, “cGAS Inhibits ALDH2 to Suppress Lipid Droplet Function and Regulate MASLD Progression” (Advanced Science, 2025)

Target: the molecule itself
Experiment: mass photometry; TWOMP (Refeyn), room temperature, 1X PBS with 1 mM β-mercaptoethanol, proteins at 10 nM-400 nM; hALDH2 with NAD+, with or without mcGAS; tetramer formation

B1: His-ALDH2, purified full-length human ALDH2 (enzyme, UniProt P05091 18-517, looked up)
chain: SAAATQAVPAPNQQPEVFCNQIFINNEWHDAVSRKTFPTVNPSTGEVICQVAEGDKEDVDKAVKAARAAFQLGSPWRRMDASHRGRLLNRLADLIERDRTYLAALETLDNGKPYVISYLVDLDMVLKCLRYYAGWADKYHGKTIPIDGDFFSYTRHEPVGVCGQIIPWNFPLLMQAWKLGPALATGNVVVMKVAEQTPLTALYVANLIKEAGFPPGVVNIVPGFGPTAGAAIASHEDVDKVAFTGSTEIGRVIQVAAGSSNLKRVTLELGGKSPNIIMSDADMDWAVEQAHFALFFNQGQCCCAGSRTFVQEDIYDEFVERSVARAKSRVVGNPFDSKTEQGPQVDETQFKKILGYINTGKQEGAKLLCGGGIAADRGYFIQPTVFGDVQDGMTIAKEEIFGPVMQILKFKTIEEVVGRANNSTYGLAAAVFTKDLDKANYLSQALQAGTVWVNCYDVFGAQSPFGGYKMSGSGRELGEYGLQAYTEVKTVTVKVPQKNS
notes: aldehyde dehydrogenase 2 (ALDH2), human, full-length gene, codon-optimised, in pET28a; Two preparations: likely apo hALDH2, and tetrameric hALDH2 isolated by SEC after incubation with 1 mM NAD+; Tetramer forms with NAD+ (mass photometry); also called hALDH2; bacterially purified ALDH2 proteins; source: E. coli Rosetta (DE3), purified (Ni Sepharose, Q column, SEC); not shown: His6, N-terminal, kept
For B1, the “stoichiometry N” value was 4.
